Laboratory results reported in patent US20230374132A1 (Innovent, published 2023).

Experiments:
[1] = target: T1, cynomolgus monkey CD3 E&D complex protein (Sino Biological Inc., CT032-00323H) (cynomolgus monkey, UniProt Q95LI5 22-117; Q95LI8 22-105); assay: BLI, antibody on sensor
T1 construct: bought heterodimer
Procedure: (§1) 100 μl SD buffer, various antibodies, human CD3 E&D complex protein (Sino Biological Inc., CT026H0323H), and cynomolgus monkey CD3 E&D complex protein (Sino Biological Inc., CT032-00323H) were added into 96-well black polystyrene semi-quantitative micro-well plate (Greiner, 675076) respectively. Fortebio Octet Red 96 was used for detection, and the sensor position was selected according to the sample position. The setting parameters of the instrument are as follows: operation steps: Baseline, Loading-1 nm, Baseline, Association and Dissociation; the operation time of each step depends on the speed of sample association and dissociation. The rotational speed is 1000 rpm and the temperature is 30° C. ForteBio Octet analysis software was used to analyze KD value.

[2] = target: T2, human CD3 E&D complex protein (Sino Biological Inc., CT026H0323H) (human, UniProt P07766 23-126; P04234 22-105); assay: BLI, antibody on sensor
T2 construct: bought heterodimer; also called human CD3 protein (CT026H0323H)
Procedure: as §1

[3] = target: T3, human CD3E&G complex (Sino Biological Inc., CT041-H0305H) (human, UniProt P07766 23-126; P09693 23-116); assay: SPR, antigen on chip
T3 construct: bought heterodimer; also called human CD3E&G antigen
Procedure: (§2) The CD3 equilibrium dissociation constant (KD) of Her2×CD3 bispecific antibody was determined using Biacore (GE Healthcare, T200), and the specific method is as follows:
(§3) The human CD3E&G antigen (Sino Biological Inc., CT041-H0305H) and Cynomolgus monkey CD3E&D antigen protein (Sino Biological Inc., CT032-00323H) were coupled to the chip surface. Afterwards, the affinity and kinetic constants were obtained by detecting the binding and dissociation between the chip surface antigen and the antibody in the mobile phase. The method includes chip preparation and affinity detection. 10-fold diluted 10×HBS-EP+(BR-1006-69, GE Healthcare) was used as the experimental buffer during measurement. […] After coupling, 1 M ethanolamine was injected to block the remaining activation sites. Affinity detection cycle is carried out for each concentration of antibody, and each cycle includes binding to antibody with this concentration and chip regeneration. The antibody after serial dilution (Her2-sp34.24: initial concentration 32 nM, 2 folds serial dilution; Her2-sp34.87: initial concentration 200 nM, 2 folds serial dilution; Her2-sp34.80, Her2-sp34.97, Her2-sp34.99, Her2-sp34.101: initial concentration 800 nM, 2 folds serial dilution; all dilute 5 concentration points), flows through the chip surface from low concentration to high concentration at 30 μl/min of the flow rate, with a binding time of 180 s and a dissociation time of 600 s. Finally, 10 mM Glycine pH 1.5 (BR-1003-54, GE Healthcare) was used to regenerate the chip. The data results were analyzed using the Biacore T200 analysis software (version 3.1), and the analysis model used was 1:1 combined model for dynamic analysis.

[4] = target: T1, cynomolgus monkey CD3 E&D complex …; assay: SPR, antigen on chip
Procedure: as §2, §3

T1 sequence (Q95LI5 22-117, chain 1 of 2): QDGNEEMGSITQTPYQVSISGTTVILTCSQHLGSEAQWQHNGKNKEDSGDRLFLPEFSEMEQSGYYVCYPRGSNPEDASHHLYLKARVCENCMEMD
T1 sequence (Q95LI8 22-105, chain 2 of 2): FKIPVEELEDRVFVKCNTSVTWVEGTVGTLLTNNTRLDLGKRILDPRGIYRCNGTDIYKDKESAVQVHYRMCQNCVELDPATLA
T2 sequence (P07766 23-126, chain 1 of 2): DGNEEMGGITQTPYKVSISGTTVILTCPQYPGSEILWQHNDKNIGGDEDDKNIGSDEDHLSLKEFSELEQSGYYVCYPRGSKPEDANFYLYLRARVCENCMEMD
T2 sequence (P04234 22-105, chain 2 of 2): as the sequence (Q95LI8 22-105, chain 2 of 2) above, with V5I, K15N, V20I, T32S, N33D, N34I, A64T, N74S, L83V counted along it
T3 sequence (P07766 23-126, chain 1 of 2): as the sequence (P07766 23-126, chain 1 of 2) above
T3 sequence (P09693 23-116, chain 2 of 2): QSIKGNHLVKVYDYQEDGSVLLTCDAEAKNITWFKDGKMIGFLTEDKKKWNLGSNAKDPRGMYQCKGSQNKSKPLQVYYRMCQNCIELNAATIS

Binder | binding result [2] | Kd [1] | koff [1] | kon [1] | Kd [2] | koff [2] | kon [2] | also measured
hzsp34.13 (antibody, human IgG1, lambda, L234A L235A, V domains shown, IgG1 L234A L235A, lambda) VH: EVQLVESGGGLVQPGGSLKLSCAASGFTFNTYAMNWVRQASGKGLEWVGRIRSKYNNYATYYADSVKDRFTISRDDSKSTLYLQMNSLKTEDTAVYYCARHGNFGNSYVSWFAYWGQGTTVTVSS VL: QAVVTQEPSLTVSPGGTVTLTCRSSTGAVTTSNYANWVQQKPGQAPRTLIGGTNKRAPGVPARFSGSLLGGKAALTLLGAQPEDEAEYYCALWYSNLWVFGQGTKLTVLG |  | 1.75 nM | 0.00164 s⁻¹ | 937000 M⁻¹ s⁻¹ | 4.33 nM | 0.00466 s⁻¹ | 1.08e+06 M⁻¹ s⁻¹ | 
Her2-hzsp34.24 (bispecific antibody, IgG1, V domains shown, 1+1 trastuzumab x hzsp34.24, IgG1 LALA knob-into-hole; also called Her2-sp34.24; copies: 1 + 1 + 1 + 1) VH 1: not shown VL 1: not shown VH 2: EVQLVESGGGLVQPGGSLKLSCAASGFTFNTYAMNWVRQASGKGLEWVGRIRSKYNNYATYYADSVKDRFTISRDDSKSTLYLQMNSLKTEDTAVYYCARHGNFGQSYVSWFAYWGQGTTVTVSS VL 2: QAVVTQEPSLTVSPGGTVTLTCRSSTGAVTTSNYANWVQQKPGQAPRGLIGGTNKRAPGVPARFSGSLLGDKAALTLLGAQPEDEAEYYCALWYSNLWVFGQGTKLTVL |  |  |  |  |  |  |  | Kd [3]: 4.88 nM; koff [3]: 0.00779 s⁻¹; kon [3]: 1.6e+06 M⁻¹ s⁻¹; Kd [4]: 7.2 nM; koff [4]: 0.008 s⁻¹; kon [4]: 1.11e+06 M⁻¹ s⁻¹
hzsp34.33 (antibody, human IgG1, kappa, L234A L235A, V domains shown, IgG1 L234A L235A, kappa) VH: EVQLVESGGGLVQPGGSLKLSCAASGFTFNTYAMNWVRQASGKGLEWVGRIRSKYNNYATYYADSVKDRFTISRDDSKSTLYLQMNSLKTEDTAVYYCARHGNFGNSYVSWFAYWGQGTTVTVSS VL: EIVMTQSPATLSVSPGERATLSCRSSTGAVTTSNYANWVQQKPGQAPRLLIGGTNKRAPGVPARFSGSGSGTEFTLTISSLQSEDFAVYYCALWYSNLWVFGQGTKLTVLR | no binding |  |  |  |  |  |  | binding result [1]: no binding
Her2-hzsp34.80 (bispecific antibody, IgG1, V domains shown, 1+1 trastuzumab x hzsp34.80, IgG1 LALA knob-into-hole; also called Her2-sp34.80; copies: 1 + 1 + 1 + 1) VH 1: not shown VL 1: not shown VH 2: EVQLVESGGGLVQPGGSLKLSCAASGFTFNTAAMNWVRQASGKGLEWVGRIRSKYNNYATYYADSVKDRFTISRDDSKSTLYLQMNSLKTEDTAVYYCARHGNFGQSYVSWFAYWGQGTTVTVSS VL 2: QAVVTQEPSLTVSPGGTVTLTCRSSTGAVTTSNYANWVQQKPGQAPRGLIGGTNKRAPGVPARFSGSLLGDKAALTLLGAQPEDEAEYYCALWYSNLWVFGQGTKLTVL |  |  |  |  |  |  |  | Kd [3]: 987 nM; koff [3]: 0.491 s⁻¹; kon [3]: 497000 M⁻¹ s⁻¹; Kd [4]: 1310 nM; koff [4]: 0.78 s⁻¹; kon [4]: 596000 M⁻¹ s⁻¹
hzsp34.12 (antibody, human IgG1, lambda, L234A L235A, V domains shown, IgG1 L234A L235A, lambda) VH: EVQLVESGGGLVQPGGSLKLSCAASGFTFNTYAMNWVRQASGKGLEWVGRIRSKYNNYATYYADSVKDRFTISRDDSKNTLYLQMNSLKTEDTAVYYCARHGNFGNSYVSWFAYWGQGTTVTVSS VL: QAVVTQEPSLTVSPGGTVTLTCRSSTGAVTTSNYANWVQQKPGQAPRTLIGGTNKRAPGVPARFSGSLLGGKAALTLLGAQPEDEAEYYCALWYSNLWVFGQGTKLTVLG |  | 4.73 nM | 0.00226 s⁻¹ | 479000 M⁻¹ s⁻¹ | 6.19 nM | 0.00396 s⁻¹ | 640000 M⁻¹ s⁻¹ | 
hzsp34.28 (antibody, human IgG1, kappa, L234A L235A, V domains shown, IgG1 L234A L235A, kappa) VH: EVQLVESGGGLVQPGGSLKLSCAASGFTFNTYAMNWVRQASGKGLEWVGRIRSKYNNYATYYADSVKDRFTISRDDSKSTLYLQMNSLKTEDTAVYYCARHGNFGNSYVSWFAYWGQGTTVTVSS VL: EIVMTQSPATLSVSPGERATLSCRSSTGAVTTSNYANWYQQKPGQAPRLLIYGTNKRAPGIPARFSGSGSGTEFTLTISSLQSEDFAVYYCALWYSNLWVFGQGTKLTVLR | no binding | 2.82 nM | 0.00117 s⁻¹ | 415000 M⁻¹ s⁻¹ |  |  |  | 
hzsp34.37 (antibody, human IgG1, kappa, L234A L235A, V domains shown, IgG1 L234A L235A, kappa) VH: EVQLVESGGGLVQPGGSLKLSCAASGFTFNTYAMNWVRQASGKGLEWVGRIRSKYNNYATYYADSVKDRFTISRDDSKNTLYLQMNSLKTEDTAVYYCARHGNFGNSYVSWFAYWGQGTTVTVSS VL: EIVMTQSPATLSVSPGERATLSCRSSTGAVTTSNYANWVQQKPGQAPRGLIGGTNKRAPGVPARFSGSGSGTEFTLTISSLQSEDFAVYYCALWYSNLWVFGQGTKLTVLR |  | 6.24 nM | 0.002 s⁻¹ | 321000 M⁻¹ s⁻¹ | 9.16 nM | 0.00399 s⁻¹ | 436000 M⁻¹ s⁻¹ | 
Her2-hzsp34.87 (bispecific antibody, IgG1, V domains shown, 1+1 trastuzumab x hzsp34.87, IgG1 LALA knob-into-hole; also called Her2-sp34.87; copies: 1 + 1 + 1 + 1) VH 1: not shown VL 1: not shown VH 2: EVQLVESGGGLVQPGGSLKLSCAASGFTFNTYAMNWVRQASGKGLEWVGRIRSKYNNYATYYADSVKDRFTISRDDSKSTLYLQMNSLKTEDTAVYYCARHYNFGQSYVSWFAYWGQGTTVTVSS VL 2: QAVVTQEPSLTVSPGGTVTLTCRSSTGAVTTSNYANWVQQKPGQAPRGLIGGTNKRAPGVPARFSGSLLGDKAALTLLGAQPEDEAEYYCALWYSNLWVFGQGTKLTVL |  |  |  |  |  |  |  | Kd [3]: 141 nM; koff [3]: 0.0462 s⁻¹; kon [3]: 327000 M⁻¹ s⁻¹; Kd [4]: 242 nM; koff [4]: 0.035 s⁻¹; kon [4]: 145000 M⁻¹ s⁻¹

Second part, led by results:

binding result [2] | Kd [1] | koff [1] | kon [1] | Kd [2] | koff [2] | kon [2] | Binder | also measured
no binding |  |  |  |  |  |  | hzsp34.34 (antibody, human IgG1, kappa, L234A L235A, V domains shown, IgG1 L234A L235A, kappa) VH: EVQLVESGGGLVQPGGSLKLSCAASGFTFNTYAMNWVRQASGKGLEWVGRIRSKYNNYATYYADSVKDRFTISRDDSKSTLYLQMNSLKTEDTAVYYCARHGNFGQSYVSWFAYWGQGTTVTVSS VL: EIVMTQSPATLSVSPGERATLSCRSSTGAVTTSNYANWVQQKPGQAPRLLIGGTNKRAPGVPARFSGSGSGTEFTLTISSLQSEDFAVYYCALWYSNLWVFGQGTKLTVLR | binding result [1]: no binding
no binding |  |  |  |  |  |  | hzsp34.35 (antibody, human IgG1, kappa, L234A L235A, V domains shown, IgG1 L234A L235A, kappa) VH: EVQLVESGGGLVQPGGSLKLSCAASGFTFNTYAMNWVRQASGKGLEWVARIRSKYNNYATYYADSVKDRFTISRDDSKSTLYLQMNSLKTEDTAVYYCARHGNFGQSYVSWFAYWGQGTTVTVSS VL: EIVMTQSPATLSVSPGERATLSCRSSTGAVTTSNYANWVQQKPGQAPRLLIGGTNKRAPGVPARFSGSGSGTEFTLTISSLQSEDFAVYYCALWYSNLWVFGQGTKLTVLR | binding result [1]: no binding
 | 12.1 nM | 0.00293 s⁻¹ | 241000 M⁻¹ s⁻¹ | 16.5 nM | 0.00581 s⁻¹ | 353000 M⁻¹ s⁻¹ | hzsp34.44 (antibody, human IgG1, kappa, L234A L235A, V domains shown, IgG1 L234A L235A, kappa) VH: EVQLVESGGGLVQPGGSLKLSCAASGFTFNTYAMNWVRQASGKGLEWVGRIRSKYNNYATYYADSVKDRFTISRDDSKSTLYLQMNSLKTEDTAVYYCARHGNFGQSYVSWFAYWGQGTTVTVSS VL: EIVMTQSPATLSVSPGERATLSCRSSTGAVTTSNYANWVQQKPGQAPRGLIGGTNKRAPGVPARFSGSGSGDEFTLTISSLQSEDFAVYYCALWYSNLWVFGQGTKLTVLR | 
 | 7.1 nM | 0.00203 s⁻¹ | 286000 M⁻¹ s⁻¹ | 7.85 nM | 0.00354 s⁻¹ | 451000 M⁻¹ s⁻¹ | hzsp34.39 (antibody, human IgG1, kappa, L234A L235A, V domains shown, IgG1 L234A L235A, kappa) VH: EVQLVESGGGLVQPGGSLKLSCAASGFTFNTYAMNWVRQASGKGLEWVGRIRSKYNNYATYYADSVKDRFTISRDDSKSTLYLQMNSLKTEDTAVYYCARHGNFGQSYVSWFAYWGQGTTVTVSS VL: EIVMTQSPATLSVSPGERATLSCRSSTGAVTTSNYANWVQQKPGQAPRGLIGGTNKRAPGVPARFSGSGSGTEFTLTISSLQSEDFAVYYCALWYSNLWVFGQGTKLTVLR | 
 | 7.92 nM | 0.00201 s⁻¹ | 253000 M⁻¹ s⁻¹ | 12.6 nM | 0.00453 s⁻¹ | 359000 M⁻¹ s⁻¹ | hzsp34.43 (antibody, human IgG1, kappa, L234A L235A, V domains shown, IgG1 L234A L235A, kappa) VH: EVQLVESGGGLVQPGGSLKLSCAASGFTFNTYAMNWVRQASGKGLEWVGRIRSKYNNYATYYADSVKDRFTISRDDSKSTLYLQMNSLKTEDTAVYYCARHGNFGNSYVSWFAYWGQGTTVTVSS VL: EIVMTQSPATLSVSPGERATLSCRSSTGAVTTSNYANWVQQKPGQAPRGLIGGTNKRAPGVPARFSGSGSGDEFTLTISSLQSEDFAVYYCALWYSNLWVFGQGTKLTVLR | 
no binding | 1.66 nM | 0.000463 s⁻¹ | 279000 M⁻¹ s⁻¹ |  |  |  | hzsp34.7 (antibody, human IgG1, lambda, L234A L235A, V domains shown, IgG1 L234A L235A, lambda) VH: EVQLVESGGGLVQPGGSLKLSCAASGFTFNTYAMNWVRQASGKGLEWVGRIRSKYNNYATYYADSVKDRFTISRDDSKNTLYLQMNSLKTEDTAVYYCARHGNFGNSYVSWFAYWGQGTTVTVSS VL: QAVVTQEPSLTVSPGGTVTLTCRSSTGAVTTSNYANWFQQKPGQAPRTLIYGTNKRAPWTPARFSGSLLGGKAALTLLGAQPEDEAEYYCALWYSNLWVFGQGTKLTVLG | 
